Assay results from US20250354149, “L-RNA APTAMER-ANTISENSE OLIGONUCLEOTIDE CONJUGATES AND USES THEREOF” (CITY UNIVERSITY OF HONG KONG, published 2025).

Legend:
[1] = biological target: T1, RHAU53 peptide (DHX36 rG4-binding domain) (synthetic construct, UniProt Q9H2U1 SEQ:1-53); assay: EMSA; 100 nM RHAU53; binding to APP rG4 region inhibited by L-Apt.4-1c-ASO15nt(APP); data not shown; 37 C, KCl, MgCl2; settings: protein: synthetic; tags: none, chemically synthesized by Synpeptide; label: 5' HEX; RNA G-quadruplex with 3' flank
T1 sequence: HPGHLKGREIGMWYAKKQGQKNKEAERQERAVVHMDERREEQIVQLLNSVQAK
Method: L-Apt.4-1c-ASO15nt_{(APP)} conjugate was serial diluted, and then the conjugate and HEX APP rG4 wt region were firstly refolded by heating at 95° C. for 5 min, 25° C. for 5 min, then 4° C. for at least 30 min separately in buffer containing 150 mM KCl, 1 mM MgCl₂, 25 mM Tris-HCl (pH 7.5) and 8% sucrose separately. 48 nM DHX36 protein (SEQ ID NO: 41) (or 100 nM RHAU53 peptide (SEQ ID NO: 42)), HEX_APP rG4 wt region (SEQ ID NO: 12) and L-Apt.4-1c-ASO15nt_{(APP)} were mixed and incubated for 30 min at 37° C. for competition binding. Then, the samples were loaded and resolved in 6% (37.5:1, acrylamide/bis-acrylamide) native gel for 70min at 35 mA at 4° C. in the running buffer containing 50 mM KOAc, 25 mM Tris-HCl (pH 7.5), 1 mM MgCl₂ (for DHX36) or running at 12.5 mA for 75 min in buffer containing 0.5×TBE and 40 mM KOAc (for RHAU53). At last, gels were scanned using Typhoon laser-scanner platform (Cytiva). Gel pictures were analyzed by image J software.

DHX36 = biological target: T2, DHX36 (Homo sapiens, UniProt Q9H2U1 SEQ:1-1008); assay: EMSA; strong gel shift bands with DHX36; data not shown; exact label of the oligo not stated; settings: label: 5' HEX; RNA G-quadruplex with 3' flank
T2 chain: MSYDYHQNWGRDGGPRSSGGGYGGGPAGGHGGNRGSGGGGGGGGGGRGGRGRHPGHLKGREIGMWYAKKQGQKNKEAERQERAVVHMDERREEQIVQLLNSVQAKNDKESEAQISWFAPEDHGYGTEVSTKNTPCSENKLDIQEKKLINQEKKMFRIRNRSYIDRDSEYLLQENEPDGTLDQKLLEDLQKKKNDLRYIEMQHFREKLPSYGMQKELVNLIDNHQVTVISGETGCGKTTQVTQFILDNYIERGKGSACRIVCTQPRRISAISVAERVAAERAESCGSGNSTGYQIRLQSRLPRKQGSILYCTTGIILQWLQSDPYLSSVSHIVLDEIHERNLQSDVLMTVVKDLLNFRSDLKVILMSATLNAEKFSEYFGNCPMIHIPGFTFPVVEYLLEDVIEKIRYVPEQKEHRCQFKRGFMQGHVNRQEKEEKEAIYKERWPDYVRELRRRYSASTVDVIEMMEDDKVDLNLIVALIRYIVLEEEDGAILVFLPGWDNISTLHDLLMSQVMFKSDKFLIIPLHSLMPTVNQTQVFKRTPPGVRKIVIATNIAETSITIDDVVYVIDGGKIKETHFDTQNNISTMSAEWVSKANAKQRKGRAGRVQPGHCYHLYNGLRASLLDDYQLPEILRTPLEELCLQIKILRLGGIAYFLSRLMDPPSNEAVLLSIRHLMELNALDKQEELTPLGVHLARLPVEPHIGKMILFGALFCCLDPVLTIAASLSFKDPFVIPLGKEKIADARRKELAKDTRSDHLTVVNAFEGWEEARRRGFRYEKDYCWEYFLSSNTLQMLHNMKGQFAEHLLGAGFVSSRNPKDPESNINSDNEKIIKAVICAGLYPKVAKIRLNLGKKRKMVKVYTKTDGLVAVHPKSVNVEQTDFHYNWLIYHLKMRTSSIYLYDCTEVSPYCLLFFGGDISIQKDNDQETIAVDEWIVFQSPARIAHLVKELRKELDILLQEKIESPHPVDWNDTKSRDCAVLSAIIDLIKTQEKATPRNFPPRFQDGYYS

## GGGGCGGGUGGGGAGGGGUGCUCUGCUGGUCUUCAAUU (ssRNA) [APP rG4 wt region (HEX)]
[1]
  binding result: binds
DHX36
  binding result: binds
